A short description of this series: soluble fraction after stress (log2 fold change); higher = more stays soluble; pooled small domains, quantitative proteomics. The note with it: stress: pH 4. In outline: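 Pooled custom libraries of small protein domains were stressed at pH 4 and then measured by high-throughput quantitative proteomics. The fold change in the amount of each domain that stays soluble after the acid stress serves as a measure of aggregation propensity. Fold changes are given on a log2 scale, and higher values mean more of the domain stayed soluble.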
As for “HMEELLVAVKADGSIWADGRPITPDGLASFIDSKPADAVLNLAVDKKAPFAAFVKVVDVAKEKKSGRFVIR”, the “soluble fraction (log2)” value was -0.141.
“HMEELPIIVAQRFLNIFRQLHIFSDERREAFNKMLLELPPEVKSIFQSLPGGTPLQEYMEDLEQKSK”: the “soluble fraction (log2)” value is -0.262.
Next, “HMEELTPLQKYVFDYESDISDEVDMRAIKGLENANDVYDYYANVRGWEGDPDLEDDLDNIYRQVKARFA”: -1.2; “HMEEMTIRQKRTMIFFIEATKHILQEDGYDHLTIREIAQRAGYNAATLYHYFRDLDELIIYGSVG”: -0.602; “HMEEPEELYRVKILIYNLLVRNGPGILYTRLRRADYPGEYGIYEEKNGYGKISATLSEWISLNTEYVQRLD”: -0.378.
With “HMEEVYVPDIRDKSISDAKKILSQMGLKYRIEGEGYDDSTVIKDQTPKPGALLAKDSVVIAYINE”, the “soluble fraction (log2)” value was -0.0728.
Next, “HMEEYLENLTQSKLLHMLDQLSPAYKTVFTLFVLDELSHEEISKMLNISIGTSKSNLFRARKVMRVLMESE”: -0.283; “HMEFDIDAAIHAALEPQAVMRAWFGHEGREYPEDFGVVFFRGWESFTHQEKVEAVRDAKKVLDRAVR”: -1.17; “HMEFDSLINYEVKKKETLFSISKKFKIEINDLLSFNTELKNNKLKKNSIIIIPLKKKIVESQNFEKQKIID”: -0.719.
Turning to “HMEFENIEQRKQYWSDLYRELKAGQDAYAKELKKGTEGYTQDELDILKEFTDEAKKQMEAAGVEATDEFAS”, the “soluble fraction (log2)” value is -0.176.
Next, “HMEFLLAIQPFVLLTDHANLTFLREQTDSMMKRIQINISGFEIEFRYVPGLTNILPDKMSRV”: -0.199; “HMEFQEQLYRLRKQAGLSQEELSHIIGVSRQAVQKWEAGSARPDLDNLIALASHFKLSLDQLVGLT”: -0.125.
For “HMEFQSIGGKIRIGREREHLTQAELAQKLSVTRQAVSNWERDKTLPDIYMIREIAEIFGLTLDEFMEGAKK” the value was 0.0806; for “HMEGDAFAFTGDIQKDLLSITAVHPMRREAVDALIAKAGASWAIVEKLLAHGELTEAKHDGHLFYLRKF”, -0.354.
For “HMEGIAEILPASVRQKYGLIGLYDALRGLHFPGNMEEIKAARQRLAFEDTLMFSLTLSMMQYS” the value was -0.0837.
Consider “HMEGIAYDINTAPEHIDLKAEDMMATFNIGKTALWRWVKQKILPPPYEYRSQAAHWTIGQIRDWKTA”, for which the “soluble fraction (log2)” value is -0.417.
Next, “HMEGLDDKTKIILFAGDKKEQEYSLADLKSKLNITENLTESELIKLLEKQGYVLDVNANNEFMFKKD”: 0.22; “HMEGNFFADIRQELMRELDQEAEWSDVQILEKIDDLVLLRTRRSSLTVNEKEQLRKELFYSVRK”: -0.394.
Next, “HMEGRTVMATTAVNVRSGPGTSYKILGVLYPGHTAQQIGNTRYGWAQVTWKGHTAYIAARYLRDS”: 0.301; “HMEGSLQEDKVKEYQDRFKEELSNDLNTANSITVLYDLIKDDTLNGTTKRYLIEDFDKILSLDLIKE”: -0.854; “HMEGSVTVMVNGESVTMTGKQNYIFVDVFDWYSFDLSAGKGRAIATLVNGKEAEFSQPLANGDNIELYWKE”: -1.42.
Next, “HMEGTAAAVALKGLMEQSGVDLREVMAAVESRGYYPKGTPFENYDPAFVSGVLVGAWDQVYKMILDQRPIP”: -1.1; “HMEGVSPQTVQEHIRRFIAAEDPASPLSDEALREALGNLGINASRRTVAKYRGEMGIPSSAQRKR”: 0.00892; “HMEGVSSESVKEMLKSIIDGEDPHNPVSDQRITDILNSRGINISRRTVAKYRDELGIASSSRRKRY”: 0.112.
Take “HMEGYLYLSESQNELILKNLKTPLKYNLYNASGKLIKKGNIKNTLDISELPKGVYIFTSSDNSFSKKFLKT”: the “soluble fraction (log2)” value stood at 0.276.
As for “HMEHAETDTRERILVVAERLFRQLGYQKTTVADIAKELRMSPANVYRFFDSKKSIHEGVARTL”, the “soluble fraction (log2)” value is 0.275.
Next, “HMEHETTQLELNAPGQRLDAALALALPDTSRAQIQQWIKQGLVTDQAGTALLQASLKLKSPLNVVLQRPI”: 0.0662; “HMEHIDVSGRAFDVSVSRLKRARRLTMRIDTHKQLVKISAPLHVESSTIRAFLARNQNWLEQQVEKR”: 0.199.

These data come from the domain aggregation screens of Martell et al. (2025).
